Target: lysozyme (UniProt P00698 19-147)
Test: method not stated (data not shown)

Sequence of lysozyme (P00698 19-147 limits assumed): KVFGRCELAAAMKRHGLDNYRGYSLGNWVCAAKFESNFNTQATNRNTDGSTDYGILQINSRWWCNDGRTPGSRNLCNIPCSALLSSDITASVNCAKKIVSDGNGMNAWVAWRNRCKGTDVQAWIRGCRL

Kd: ~100 µM
B1: FN3con.DE0.4.1_graft_v1 (designed binder)
chain: PSPPGNLRVTDVTSTSVTLSWRGYPWATGYRVEYREAGGEWKEVTVPGDLSHRYTVTGLKPGTEYEFRVRAVNRVGRTFDTPGPSSVSVTT
notes: Made by gene synthesis, expressed in E. coli and purified; also called the designed graft; the graft

Reference: patent US20190316116A1 (MONASH UNIVERSITY, published 2019)
